Data taken from WO2021032966A1.

Biological target: Ab42 oligomers (formed during the in vitro aggregation reaction of Ab42)
Assay: time-course indirect ELISA on samples of the Ab42 aggregation reaction

Sequence of Ab42 oligomers (formed during the in vitro aggregation reaction of Ab42) (peptide, as listed by the source): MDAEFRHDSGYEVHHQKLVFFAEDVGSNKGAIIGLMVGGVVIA

fold of ELISA absorbance at 1 hour of incubation over the initial time of aggregation: 3 fold
B1: DesAb-O (VHH)
VHH: EVQLVESGGGLVQPGGSLRLSCAASGFNIKDTYIGWVRRAPGKGEEWVASIYPTNGYTRYADSVKGRFTISADTSKNTAYLQMNSLRAEDTAVYYCAAGSESAFGRAEEEAAAWGQGTLVTVSS
